According to US20200339636A1 (CHILDREN S MEDICAL CENTER, published 2020):

B1: TcdB fragment 1071-1512 (other)
chain: LTTATTAIITSSLGIASGFSILLVPLAGISAGIPSLVNNELVLRDKATKVVDYFKHVSLVETEGVFTLLDDKIMMPQDDLVISEIDFNNNSIVLGKCEIWRMEGGSGHTVTDDIDHFFSAPSITYREPHLSIYDVLEVQKEELDLSKDLMVLPNAPNRVFAWETGWTPGLRSLENDGTKLLDRIRDNYEGEFYWRYFAFIADALITTLKPRYEDTNIRINLDSNTRSFIVPIITTEYIREKLSYSFYGSGGTYALSLSQYNMGINIELSESDVWIIDVDNVVRDVTIESDKIKKGDLIEGILSTLSIEENKIILNSHEINFSGEVNGSNGFVSLTFSILEGINAIIEVDLLSKSYKLLISGELKILMLNSNHIQQKIDYIGFNSELQKNIPYSFVDSEGKENGFINGSTKEGLFVSELPDVVLISKVYMDDSKPSFGYYSNN
B2: TcdB fragment 1688-1835 (other)
chain: VNKVVISPNIYTDEINITPVYETNNTYPEVIVLDANYINEKINVNINDLSIRYVWSNDGNDFILMSTSEENKVSQVKIRFVNVFKDKTLANKLSFNFSDKQDVPVSEIILSFTPSYYEDGLIGYDLGLVSLYNEKFYINNFGMMVSGL
B3: FZD8^CRD-Fc (recombinant human, R&D Systems) (Fc fusion)
chain: ASAKELACQEITVPLCKGIGYNYTYMPNQFNHDTQDEAGLEVHQFWPLVEIQCSPDLKFFLCSMYTPICLEDYKKPLPPCRSVCERAKAGCAPLMRQYGFAWPDRMRCDRLPEQGNPDTLCMDYNRTDLTT
notes: domain: CRD
B4: TcdB fragment 1510-1804 (other)
chain: SNNLKDVKVITKDNVNILTGYYLKDDIKISLSLTLQDEKTIKLNSVHLDESGVAEILKFMNRKGNTNTSDSLMSFLESMNIKSIFVNFLQSNIKFILDANFIISGTTSIGQFEFICDENDNIQPYFIKFNTLETNYTLYVGNRQNMIVEPNYDLDDSGDISSTVINFSQKYLYGIDSCVNKVVISPNIYTDEINITPVYETNNTYPEVIVLDANYINEKINVNINDLSIRYVWSNDGNDFILMSTSEENKVSQVKIRFVNVFKDKTLANKLSFNFSDKQDVPVSEIILSFTPSYY
B5: TcdB fragment 1454-1804 (other)
chain: SELQKNIPYSFVDSEGKENGFINGSTKEGLFVSELPDVVLISKVYMDDSKPSFGYYSNNLKDVKVITKDNVNILTGYYLKDDIKISLSLTLQDEKTIKLNSVHLDESGVAEILKFMNRKGNTNTSDSLMSFLESMNIKSIFVNFLQSNIKFILDANFIISGTTSIGQFEFICDENDNIQPYFIKFNTLETNYTLYVGNRQNMIVEPNYDLDDSGDISSTVINFSQKYLYGIDSCVNKVVISPNIYTDEINITPVYETNNTYPEVIVLDANYINEKINVNINDLSIRYVWSNDGNDFILMSTSEENKVSQVKIRFVNVFKDKTLANKLSFNFSDKQDVPVSEIILSFTPSYY
B6: FZD4^CRD-Fc (recombinant human, Sino Biologics) (Fc fusion)
chain: FGDEEERRCDPIRISMCQNLGYNVTKMPNLVGHELQTDAELQLTTFTPLIQYGCSSQLQFFLCSVYVPMCTEKINIPIGPCGGMCLSVKRRCEPVLKEFGFAWPESLNCSKFPPQNDHNHMCMEGPGDEEVPLPHKTPIQPGEE
notes: domain: CRD
B7: FZD5^CRD-Fc (recombinant human, Sino Biologics) (Fc fusion, UniProt Q13467 27-167, looked up)
chain: ASKAPVCQEITVPMCRGIGYNLTHMPNQFNHDTQDEAGLEVHQFWPLVEIQCSPDLRFFLCSMYTPICLPDYHKPLPPCRSVCERAKAGCSPLMRQYGFAWPERMSCDRLPVLGRDAEVLCMDYNRSEATTAPPRPFPAKP
notes: domain: CRD; also called CRD5; CRD5-Fc; not shown: Fc tag of the bought protein
B8: Wnt3A (recombinant human, StemRD) (ligand)
chain: SYPIWWSLAVGPQYSSLGSQPILCASIPGLVPKQLRFCRNYVEIMPSVAEGIKIGIQECQHQFRGRRWNCTTVHDSLAIFGPVLDKATRESAFVHAIASAGVAFAVTRSCAEGTAAICGCSSRHQGSPGKGWKWGGCSEDIEFGGMVSREFADARENRPDARSAMNRHNNEAGRQAIASHMHLKCKCHGLSGSCEVKTCWWSQPDFRAIGDFLKDKYDSASEMVVEKHRESRGWVETLRPRYTYFKVPTERDLVYYEASPNFCEPNPETGSFGTRDRTCNVSSHGIDGCDLLCCGRGHNARAERRREKCRCVFHWCCYVSCQECTRVYDVHTCK
B9: sTcdB (TcdB residues 1285-1804), wild type, with C-terminal HA tag (other)
chain: TNIRINLDSNTRSFIVPIITTEYIREKLSYSFYGSGGTYALSLSQYNMGINIELSESDVWIIDVDNVVRDVTIESDKIKKGDLIEGILSTLSIEENKIILNSHEINFSGEVNGSNGFVSLTFSILEGINAIIEVDLLSKSYKLLISGELKILMLNSNHIQQKIDYIGFNSELQKNIPYSFVDSEGKENGFINGSTKEGLFVSELPDVVLISKVYMDDSKPSFGYYSNNLKDVKVITKDNVNILTGYYLKDDIKISLSLTLQDEKTIKLNSVHLDESGVAEILKFMNRKGNTNTSDSLMSFLESMNIKSIFVNFLQSNIKFILDANFIISGTTSIGQFEFICDENDNIQPYFIKFNTLETNYTLYVGNRQNMIVEPNYDLDDSGDISSTVINFSQKYLYGIDSCVNKVVISPNIYTDEINITPVYETNNTYPEVIVLDANYINEKINVNINDLSIRYVWSNDGNDFILMSTSEENKVSQVKIRFVNVFKDKTLANKLSFNFSDKQDVPVSEIILSFTPSYY
B10: TcdB fragment 1430-1804 (other)
chain: SGELKILMLNSNHIQQKIDYIGFNSELQKNIPYSFVDSEGKENGFINGSTKEGLFVSELPDVVLISKVYMDDSKPSFGYYSNNLKDVKVITKDNVNILTGYYLKDDIKISLSLTLQDEKTIKLNSVHLDESGVAEILKFMNRKGNTNTSDSLMSFLESMNIKSIFVNFLQSNIKFILDANFIISGTTSIGQFEFICDENDNIQPYFIKFNTLETNYTLYVGNRQNMIVEPNYDLDDSGDISSTVINFSQKYLYGIDSCVNKVVISPNIYTDEINITPVYETNNTYPEVIVLDANYINEKINVNINDLSIRYVWSNDGNDFILMSTSEENKVSQVKIRFVNVFKDKTLANKLSFNFSDKQDVPVSEIILSFTPSYY
B11: TcdB fragment 1510-1688 (other)
chain: SNNLKDVKVITKDNVNILTGYYLKDDIKISLSLTLQDEKTIKLNSVHLDESGVAEILKFMNRKGNTNTSDSLMSFLESMNIKSIFVNFLQSNIKFILDANFIISGTTSIGQFEFICDENDNIQPYFIKFNTLETNYTLYVGNRQNMIVEPNYDLDDSGDISSTVINFSQKYLYGIDSCV

How the values were obtained:
[1] = target: T1, His-tagged CRD2 (CRD of human Frizzled 2, residues 24-156) (human, UniProt Q14332 24-156); test: pull down by His-CRD2
T1 construct: range 24-156

[2] = target: B9; test: BLI, CRD-Fc with or without Wnt3A
[3] = target: Recombinant full length TcdB (C. difficile strain VPI 10463), 6xHis-tagged (Clostridium difficile strain VPI 10463, UniProt P18177 1-2366); test: BLI, FZD5 CRD-Fc with or without Wnt3A
[4] = target: B9; test: pull-down on Protein G beads and BLI, FZD5 CRD-Fc with or without PAM or Wnt3A
[5] = target: T2, FZD2^CRD-Fc (recombinant human, R&D Systems) (human, UniProt Q14332 24-162); test: BLI, FZD2CRD-Fc (20 µg/ml) on anti-hIgG-Fc biosensor, then 20 µg/ml Wnt3A
T2 construct: domain: CRD; also called Fc-tagged CRD2; CRD2; not shown: Fc tag of the bought protein

[6] = target: T2, FZD2^CRD-Fc (recombinant human, R&D …)
[7] = target: T2, FZD2^CRD-Fc (recombinant human, R&D …); test: BLI, FZD2 CRD-Fc on anti-hIgG-Fc biosensor
[8] = target: T2, FZD2^CRD-Fc (recombinant human, R&D …); test: BLI (Blitz), FZD2CRD-Fc on anti-hIgG-Fc biosensor
[9] = target: T2, FZD2^CRD-Fc (recombinant human, R&D …); test: BLI (Blitz), FZD2CRD-Fc on anti-hIgG-Fc biosensor; kon error printed 1.69 x 10^3

Recombinant full length TcdB (C. difficile strain VPI 10463), 6xHis-tagged, sequence (P18177 whole entry): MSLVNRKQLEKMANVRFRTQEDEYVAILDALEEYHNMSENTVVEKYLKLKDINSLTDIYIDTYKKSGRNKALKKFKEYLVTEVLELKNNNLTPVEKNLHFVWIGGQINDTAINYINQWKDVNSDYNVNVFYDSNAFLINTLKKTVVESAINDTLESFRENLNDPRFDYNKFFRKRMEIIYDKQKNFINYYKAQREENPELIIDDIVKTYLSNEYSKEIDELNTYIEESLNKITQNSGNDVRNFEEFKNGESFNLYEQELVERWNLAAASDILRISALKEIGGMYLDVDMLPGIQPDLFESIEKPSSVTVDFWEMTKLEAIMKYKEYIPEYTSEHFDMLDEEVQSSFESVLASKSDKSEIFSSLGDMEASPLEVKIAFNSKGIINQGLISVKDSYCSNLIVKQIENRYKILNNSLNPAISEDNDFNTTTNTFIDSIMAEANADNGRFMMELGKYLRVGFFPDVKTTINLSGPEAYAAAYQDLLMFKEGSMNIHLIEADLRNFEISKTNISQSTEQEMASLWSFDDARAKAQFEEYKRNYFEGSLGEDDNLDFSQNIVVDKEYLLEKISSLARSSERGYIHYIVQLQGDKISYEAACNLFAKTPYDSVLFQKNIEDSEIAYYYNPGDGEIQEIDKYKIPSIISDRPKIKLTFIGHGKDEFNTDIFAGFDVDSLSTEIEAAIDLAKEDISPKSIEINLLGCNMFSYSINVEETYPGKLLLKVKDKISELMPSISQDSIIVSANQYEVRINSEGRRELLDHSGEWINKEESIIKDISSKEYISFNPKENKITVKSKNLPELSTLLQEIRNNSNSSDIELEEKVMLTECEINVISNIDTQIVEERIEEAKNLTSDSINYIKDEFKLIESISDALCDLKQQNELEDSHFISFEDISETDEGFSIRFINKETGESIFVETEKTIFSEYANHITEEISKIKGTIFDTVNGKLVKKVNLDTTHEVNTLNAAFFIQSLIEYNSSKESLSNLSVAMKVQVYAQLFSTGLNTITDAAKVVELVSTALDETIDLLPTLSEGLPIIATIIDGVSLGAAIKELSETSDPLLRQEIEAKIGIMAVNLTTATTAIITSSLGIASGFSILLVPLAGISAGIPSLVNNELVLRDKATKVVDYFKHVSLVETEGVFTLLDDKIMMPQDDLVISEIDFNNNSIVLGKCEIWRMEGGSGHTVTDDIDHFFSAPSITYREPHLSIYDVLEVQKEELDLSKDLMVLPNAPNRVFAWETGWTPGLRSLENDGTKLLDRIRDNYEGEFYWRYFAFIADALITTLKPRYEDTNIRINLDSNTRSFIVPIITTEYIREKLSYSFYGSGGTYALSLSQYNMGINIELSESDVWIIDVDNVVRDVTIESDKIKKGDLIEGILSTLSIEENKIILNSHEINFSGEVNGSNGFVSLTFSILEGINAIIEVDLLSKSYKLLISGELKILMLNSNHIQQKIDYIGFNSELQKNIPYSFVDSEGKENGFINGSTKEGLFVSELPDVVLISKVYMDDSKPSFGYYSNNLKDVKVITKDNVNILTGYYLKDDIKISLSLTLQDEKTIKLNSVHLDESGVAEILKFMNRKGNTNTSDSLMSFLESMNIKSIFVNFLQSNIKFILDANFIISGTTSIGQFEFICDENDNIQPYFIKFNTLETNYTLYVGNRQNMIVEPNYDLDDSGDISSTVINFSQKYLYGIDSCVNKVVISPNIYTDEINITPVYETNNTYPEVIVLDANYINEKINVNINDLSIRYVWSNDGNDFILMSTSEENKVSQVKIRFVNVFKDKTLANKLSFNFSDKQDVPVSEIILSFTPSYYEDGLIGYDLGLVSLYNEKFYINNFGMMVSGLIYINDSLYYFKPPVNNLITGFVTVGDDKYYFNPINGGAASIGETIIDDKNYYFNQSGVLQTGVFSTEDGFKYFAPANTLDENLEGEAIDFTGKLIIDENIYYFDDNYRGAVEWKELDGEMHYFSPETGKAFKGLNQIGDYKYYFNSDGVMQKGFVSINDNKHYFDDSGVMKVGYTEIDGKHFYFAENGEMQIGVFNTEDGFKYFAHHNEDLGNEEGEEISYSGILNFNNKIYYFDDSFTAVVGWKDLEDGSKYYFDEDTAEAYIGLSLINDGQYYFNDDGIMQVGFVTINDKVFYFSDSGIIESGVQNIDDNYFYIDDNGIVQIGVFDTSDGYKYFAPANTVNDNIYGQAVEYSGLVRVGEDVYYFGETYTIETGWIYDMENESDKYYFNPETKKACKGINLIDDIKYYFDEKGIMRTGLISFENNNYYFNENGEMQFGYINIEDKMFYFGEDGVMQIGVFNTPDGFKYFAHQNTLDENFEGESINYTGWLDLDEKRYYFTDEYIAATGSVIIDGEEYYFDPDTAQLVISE

B1: no binding [1].

B2: no binding [1].

B3: binds [2].

B4: no binding [1].

B5: no binding [1].

B6: binds [2].

B7: binds [3]; binds [4].

B8: binds [5].

In the case of B9, the koff [6] is reported as 0.0015 s⁻¹, the Kd [7] is reported as ~13 nM and the Kd [8] is reported as 13 nM. For the same binder, the kon [9] was 114000 M⁻¹ s⁻¹.

B10: no binding [1].

B11: no binding [1].
